From the DeepSol protein solubility set

assay: soluble on expression in E. coli; label from the status in PepcDB or PDB records

| Sequence | soluble on expression in E. coli |
| --- | --- |
| MSLTNKHPSLFSPFMLTEKIKLRNRIVMAPMTTWSANPDGTISEQELEFYKRRSQNVGLVITGCTYVTPSGIGFTHEFAAYDDRFINSLEKLAAAAKSGGAPAILQIFHAGNKAIPELVPNNDVISASASSVKSGDFMKRVVQSREMTENEIQETIRAFGDVTKRAIKAGFDGIELHGAHGFLLQNFFSPLFNQRNDRWGGDLEGRMRFPLAVLQEVKNVVYEYATKPFAIGYRISPEESATGGLRIEDTYKLLDRLISSGISYIHTSLVSINDSYPVESPNGPRTIELILNHIAGRVPVIAAGKIRTPSQAQEAISTGLPLVAIGKGLVINPEWVTLAESGRGHEIQTTLNPQLVPELTIPDKLWDQIQASKGEGHHHHHH | soluble |
| MEILASRMLLRPADYQRSLSFYRDQIGLAIAREYGAGTVFFAGQSLLELAGYGEPDHSRGPFPGALWLQVRDLEATQTELVSRGVSIAREPRREPWGLHEMHVTDPDGITLIFVEVPEGHPLRTDTRA | soluble |
| MKQKVVSIGDINVANDLPFVLFGGMNVLESRDLAMRICEHYVTVTQKLGIPYVFKASFDKANRSSIHSYRGPGLEEGMKIFQELKQTFGVKIITDVHEPSQAQPVADVVDVIQLPAFLARQTDLVEAMAKTGAVINVKKPQFVSPGQMGNIVDKFKEGGNEKVILCDRGANFGYDNLVVDMLGFSIMKKVSGNSPVIFDVTHALQCRDPFGAASGGRRAQVAELARAGMAVGLAGLFIEAHPDPEHAKCDGPSALPLAKLEPFLKQMKAIDDLVKGFEELDTSK | soluble |
| MHHIETTKLSRRAFLKKLTRTSFSAALMMAAASGYARWIEPAELTVTHHALSHPLIPKSFAGVKLLQFSDLHLGHYYGLERFYRIMGRINELGPDLVVFTGDLLHEANRYPHVDAVAEALAGVRAPLGKFCIYGNHDHGGYGTDIYRRLMERAGFRVLVNEHALVRRGHGAIAIAGSDDMMLGRPDWSKMTNGIPRATYTIALVHEPDGAIEARRFPIHVQLSGHSHGGQIQLPFIGPLITPPLSERYYEGFYHVGGLLLYVNRGLGTTRVPLRFFAPPELTVFSLAPG | not soluble |
| MSQQVTMSFSVVPQAKTKDVYSVVDKAIEVVQQSGVRYEVGAMETTLEGELDVLLDVVKRAQQACVDAGAEEVITSIKIHYRPSTGVTIDEKVWKYRDEYAKPEAI | soluble |
| MEKEAFMEKLLSFMKEEAYKPLTVQELEEMLNITEAEEFKELVKALVALEEKGLIVRTRSDRYGIPEKMNLIKGKISAHAKGFAFLLPEDTSLSDVFIPPNELNTAMNGDIVMVRLNSQSSGSRQEGTVIRILERAIQRVVGTYTETRNFGFVIPDDKKITSDIFIPKNGKNGAAEGHKVVVKLTSYPEGRMNAEGEVETILGHKNDPGIDILSVIHKHGLPGEFPADAMEQASSTPDTIDEKDLKDRRDLRDQVIVTIDGADAKDLDDAVTVTKLDDGSYKLGVHIADVSHYVTENSPIDKEALERGTSVYLVDRVIPMIPHRLSNGICSLNPKVDRLTLSCEMTINSQGQVTEHEIFQSVIKTTERMTYSDVNKILVDDDEELKQKYEPLVPMFKDMERLAQILRDKRMDRGAVDFDFKEAKVLVDDEGAVKDVVIRERSVAEKLIEEFMLVANETVAEHFHWMNVPFIYRIHEEPNAEKLQKFLEFVTTFGYVVKGTAGNIHPRALQSILDAVRDRPEETVISTVMLRSMKQAKYDPQSLGHFGLSTEFYTHFTSPIRRYPDLIVHRLIRTYLINGKVDEATQEKWAERLPDIAEHTSSMERRAVDAERETDDLKKAEYMLDKIGEEFDGMISSVTNFGMFVELPNTIEGLVHVSFMTDDYYRFDEQHFAMIGERTGNVFRIGDEITVKVVDVNKDERNIDFEIVGMKGTPRRPRELDSSRSRKRGKPARKRVQSTNTPVSPAPSEEKGEWFTKPKKKKKKRGFQNAPKQKRKKKKLEHHHHHH | not soluble |
| MQAEILLTLKLQQKLFADPRRISLLKHIALSGSISQGAKDAGISYKSAWDAINDMNQLSEHMLVERATGGKGGGGAVLTRYGQRLIQLYDLLGQIQQKAFDVLSDDDALPLDSLLAAISRFSLQTSARNQWFGTITARDRDLVQQHVDVLLADGKTRLKVALTAQSGERLGLEEGKEVLILLKAPWVGITRDAAVARAADNQLSGTISHIERGAEQCEVLMALPDGQTLCATIPTSDAATLKEGDDVIAWFNADRVIIATLC | not soluble |
